Measured values from patent publication US20150037339A1 (Regeneron, published 2015).

T1: Activin A (homodimer of two inhibin βA subunits; R&D Systems, #338-AC) (human, UniProt P08476 311-426)
T1 construct: Bought protein; also called inhibin-βA dimer
T1 sequence: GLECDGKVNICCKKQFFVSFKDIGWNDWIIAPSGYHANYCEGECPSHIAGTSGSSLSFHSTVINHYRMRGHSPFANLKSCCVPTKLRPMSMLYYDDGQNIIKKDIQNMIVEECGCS

B1: H4H10430P (antibody, human IgG4, V domains shown)
VH: EVQLVESGGGLVQPGRSLRLSCKASGFAFDDFAMHWVRQAPGKGLEWVSGIVWNSGDIGYADSVKGRFTISRDNAKNSLYLQLNSLRTEDTALYFCVKDMVRGLMGFNYYGMDVWGQGTTVTVSS
VL: EIVLTQSPATLSLSPGERATLSCRASQTISTYLVWYRQRPGQAPSLLIYDASNRATDIPARFSGSGSGTDFTLTISSLEPEDFAVYYCQQRSNWPITFGQGTRLEIK
notes: H4H prefix means human IgG4 Fc
B2: H4H10440P2 (antibody, human IgG4, V domains shown)
VH: EVQLVESGGGVVQPGGSLRLSCAASTFTFDDFAMHWVRQAPGKGLEWVSLITGDGGSTYYADPVKGRFTISRDNSKNSLYLQMNSLRTEDTALYYCVKDWWIAARPDYYYYGMDVWGQGTTVTVSS
VL: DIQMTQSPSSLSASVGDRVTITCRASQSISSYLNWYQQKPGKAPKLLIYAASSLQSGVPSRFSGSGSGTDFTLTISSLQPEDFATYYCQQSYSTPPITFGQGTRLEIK
notes: as for B1
B3: H4H10442P2 (antibody, human IgG4, V domains shown)
VH: QVQLQESGPGLVKPSETLSITCTVSGGSFSSHFWTWIRQPPGKGLEWIGYLHYSGGTSYNPSLKSRVIISVDTSKNQFSLKLNSVTAADTAVYYCARARSGITFGGLIVPGSFDIWGQGTMVTVSS
VL: not shown
notes: as for B1
B4: H4H10446P2 (antibody, human IgG4, V domains shown)
VH: QVQLQESGPGLVKPSETLSLTCTVSGGSFSSHFWSWIRQPPGKGLEWIGYILYTGGTSFNPSLKSRVSMSVGTSKNQFSLKLSSVTAADTAVYYCARARSGITFTGIIVPGSFDIWGQGTMVTVSS
VL: not shown
notes: as for B1

molecular target: T1, Activin A (homodimer of two inhibin βA …); test: SPR blocking: 5 nM Activin A + 7.50 nM binder over hActRIIB-hFc (Control 4) surface

First: B1
Second: B2
The “% bound RU w/no inhibitor” value of the first is lower: 4% for the first, 7% for the second.

First: B3
Second: B4
The “% bound RU w/no inhibitor” value of the first is higher: 103% for the first, 95% for the second.

molecular target: T1, Activin A (homodimer of two inhibin βA …); test: SPR blocking: 5 nM Activin A + 3.75 nM binder over hActRIIB-hFc (Control 4) surface
Procedure: (§1) The binding signal (RU) was measured at 150 seconds after the start of the injection, and this signal was subtracted by the measured RU value for a negative control reference surface to determine the specific binding signal.

Going from B1 to B2, the “% bound RU w/no inhibitor” value falls from 20% to 19%.

Compared with B3, B4 is lower in “% bound RU w/no inhibitor” value: 88% for the first, 76% for the second.

molecular target: T1, Activin A (homodimer of two inhibin βA …); test: SPR blocking: 5 nM Activin A + 15 nM binder over hActRIIB-hFc (Control 4) surface

Going from B1 to B2, the “% bound RU w/no inhibitor” value rises from 3% to 4%.

B3 and B4 are the same in “% bound RU w/no inhibitor” value: 115% for the first, 115% for the second.

molecular target: T1, Activin A (homodimer of two inhibin βA …); test: SPR blocking: 5 nM Activin A + 0.94 nM binder over hActRIIB-hFc (Control 4) surface

Compared with B1, B2 is lower in “% bound RU w/no inhibitor” value: 80% for the first, 79% for the second.

Going from B3 to B4, the “% bound RU w/no inhibitor” value falls from 110% to 107%.

molecular target: T1, Activin A (homodimer of two inhibin βA …); test: SPR blocking: 5 nM Activin A + 7.5 nM binder over Follistatin-288 surface
Procedure: as §1

Going from B1 to B2, the “% bound RU w/no inhibitor” value rises from 1% to 4%.

B3 and B4 are the same in “% bound RU w/no inhibitor” value: 3% for the first, 3% for the second.

molecular target: T1, Activin A (homodimer of two inhibin βA …); test: SPR blocking: 5 nM Activin A + 0.00 nM binder over hActRIIB-hFc (Control 4) surface
Procedure: as §1

B1 and B2 are the same in “% bound RU w/no inhibitor” value: 100% for the first, 100% for the second.

B3 and B4 are the same in “% bound RU w/no inhibitor” value: 100% for the first, 100% for the second.

molecular target: T1, Activin A (homodimer of two inhibin βA …); test: SPR blocking: 5 nM Activin A + 60 nM binder over Follistatin-288 surface
Procedure: as §1

Compared with B1, B2 is lower in “% bound RU w/no inhibitor” value: 1% for the first, 0% for the second.

B3 and B4 are the same in “% bound RU w/no inhibitor” value: 3% for the first, 3% for the second.

molecular target: T1, Activin A (homodimer of two inhibin βA …); test: SPR blocking: 5 nM Activin A + 0 nM binder over Follistatin-288 surface
Procedure: as §1

B1 and B2 are the same in “% bound RU w/no inhibitor” value: 100% for the first, 100% for the second.

B3 and B4 are the same in “% bound RU w/no inhibitor” value: 100% for the first, 100% for the second.

molecular target: T1, Activin A (homodimer of two inhibin βA …); test: SPR blocking: 5 nM Activin A + 3.75 nM binder over hActRIIA-hFc surface
Procedure: as §1

Compared with B1, B2 is lower in “% bound RU w/no inhibitor” value: 19% for the first, 17% for the second.

Compared with B3, B4 is lower in “% bound RU w/no inhibitor” value: 95% for the first, 85% for the second.

molecular target: T1, Activin A (homodimer of two inhibin βA …); test: SPR blocking: 5 nM Activin A + 0.94 nM binder over hActRIIA-hFc surface
Procedure: as §1

Compared with B1, B2 is lower in “% bound RU w/no inhibitor” value: 81% for the first, 75% for the second.

First: B3
Second: B4
The “% bound RU w/no inhibitor” value of the first is higher: 114% for the first, 111% for the second.

molecular target: T1, Activin A (homodimer of two inhibin βA …); test: SPR blocking: 5 nM Activin A + 1.88 nM binder over Follistatin-288 surface
Procedure: as §1

First: B1
Second: B2
The “% bound RU w/no inhibitor” value of the first is higher: 59% for the first, 57% for the second.

Compared with B3, B4 is higher in “% bound RU w/no inhibitor” value: 46% for the first, 54% for the second.

molecular target: T1, Activin A (homodimer of two inhibin βA …); test: SPR blocking: 5 nM Activin A + 0.94 nM binder over Follistatin-288 surface
Procedure: as §1

Compared with B1, B2 is lower in “% bound RU w/no inhibitor” value: 79% for the first, 76% for the second.

Compared with B3, B4 is higher in “% bound RU w/no inhibitor” value: 73% for the first, 77% for the second.

molecular target: T1, Activin A (homodimer of two inhibin βA …); test: SPR blocking: 5 nM Activin A + 60 nM binder over hActRIIA-hFc surface
Procedure: as §1

First: B1
Second: B2
The “% bound RU w/no inhibitor” value of the first is lower: 2% for the first, 3% for the second.

B3 and B4 are the same in “% bound RU w/no inhibitor” value: 118% for the first, 118% for the second.

molecular target: T1, Activin A (homodimer of two inhibin βA …); test: SPR blocking: 5 nM Activin A + 3.75 nM binder over Follistatin-288 surface
Procedure: as §1

First: B1
Second: B2
The “% bound RU w/no inhibitor” value of the first is lower: 15% for the first, 17% for the second.

Going from B3 to B4, the “% bound RU w/no inhibitor” value rises from 6% to 7%.

molecular target: T1, Activin A (homodimer of two inhibin βA …); test: SPR blocking: 5 nM Activin A + 0.00 nM binder over hActRIIA-hFc surface
Procedure: as §1

B1 and B2 are the same in “% bound RU w/no inhibitor” value: 100% for the first, 100% for the second.

B3 and B4 are the same in “% bound RU w/no inhibitor” value: 100% for the first, 100% for the second.

molecular target: T1, Activin A (homodimer of two inhibin βA …); test: SPR blocking: 5 nM Activin A + 30 nM binder over Follistatin-288 surface
Procedure: as §1

B1 and B2 are the same in “% bound RU w/no inhibitor” value: 1% for the first, 1% for the second.

B3 and B4 are the same in “% bound RU w/no inhibitor” value: 3% for the first, 3% for the second.

molecular target: T1, Activin A (homodimer of two inhibin βA …); test: SPR blocking: 5 nM Activin A + 30 nM binder over hActRIIB-hFc (Control 4) surface
Procedure: as §1

Going from B1 to B2, the “% bound RU w/no inhibitor” value rises from 3% to 4%.

First: B3
Second: B4
The “% bound RU w/no inhibitor” value of the first is higher: 122% for the first, 89% for the second.

molecular target: T1, Activin A (homodimer of two inhibin βA …); test: SPR blocking: 5 nM Activin A + 7.50 nM binder over hActRIIA-hFc surface
Procedure: as §1

Going from B1 to B2, the “% bound RU w/no inhibitor” value rises from 3% to 6%.

Compared with B3, B4 is lower in “% bound RU w/no inhibitor” value: 105% for the first, 94% for the second.

molecular target: T1, Activin A (homodimer of two inhibin βA …); test: SPR blocking: 5 nM Activin A + 15 nM binder over Follistatin-288 surface
Procedure: as §1

Going from B1 to B2, the “% bound RU w/no inhibitor” value rises from 1% to 2%.

B3 and B4 are the same in “% bound RU w/no inhibitor” value: 3% for the first, 3% for the second.

molecular target: T1, Activin A (homodimer of two inhibin βA …); test: SPR blocking: 5 nM Activin A + 60 nM binder over hActRIIB-hFc (Control 4) surface
Procedure: as §1

Going from B1 to B2, the “% bound RU w/no inhibitor” value rises from 3% to 4%.

Going from B3 to B4, the “% bound RU w/no inhibitor” value rises from 124% to 129%.

molecular target: T1, Activin A (homodimer of two inhibin βA …); test: SPR blocking: 5 nM Activin A + 1.88 nM binder over hActRIIB-hFc (Control 4) surface
Procedure: as §1

First: B1
Second: B2
The “% bound RU w/no inhibitor” value of the first is higher: 62% for the first, 58% for the second.

Going from B3 to B4, the “% bound RU w/no inhibitor” value falls from 106% to 105%.

molecular target: T1, Activin A (homodimer of two inhibin βA …); test: SPR blocking: 5 nM Activin A + 1.88 nM binder over hActRIIA-hFc surface
Procedure: as §1

Going from B1 to B2, the “% bound RU w/no inhibitor” value falls from 62% to 52%.

First: B3
Second: B4
The “% bound RU w/no inhibitor” value of the first is lower: 114% for the first, 115% for the second.

molecular target: T1, Activin A (homodimer of two inhibin βA …); test: SPR blocking: 5 nM Activin A + 30 nM binder over hActRIIA-hFc surface
Procedure: as §1

First: B1
Second: B2
The “% bound RU w/no inhibitor” value of the first is lower: 2% for the first, 3% for the second.

Compared with B3, B4 is lower in “% bound RU w/no inhibitor” value: 117% for the first, 98% for the second.

molecular target: T1, Activin A (homodimer of two inhibin βA …); test: SPR blocking: 5 nM Activin A + 15 nM binder over hActRIIA-hFc surface
Procedure: as §1

First: B1
Second: B2
The “% bound RU w/no inhibitor” value of the first is lower: 2% for the first, 4% for the second.

Compared with B3, B4 is lower in “% bound RU w/no inhibitor” value: 113% for the first, 108% for the second.
